B1: Alpha-crystallin B chain (Homo sapiens), P02511 (parent)
chain: MDIAIHHPWIRRPFFPFHSPSRLFDQFFGEHLLESDLFPTSTSLSPFYLRPPSFLRAPSWFDTGLSEMRLEKDRFSVNLDVKHFSPEELKVKVLGDVIEVHGKHEERQDEHGFISREFHRKYRIPADVDPLTITSSLSSDGVLTVNGPRKQVSGPERTIPITREEKPAVTAAPKK
partner: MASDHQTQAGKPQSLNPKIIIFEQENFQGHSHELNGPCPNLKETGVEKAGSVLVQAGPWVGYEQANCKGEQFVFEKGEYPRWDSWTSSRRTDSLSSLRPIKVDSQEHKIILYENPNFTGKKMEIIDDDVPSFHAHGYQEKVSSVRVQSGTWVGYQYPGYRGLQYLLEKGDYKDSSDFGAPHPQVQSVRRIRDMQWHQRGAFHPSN
B2: Gamma-crystallin C (Homo sapiens), P07315 (parent)
chain: MGKITFYEDRAFQGRSYETTTDCPNLQPYFSRCNSIRVESGCWMLYERPNYQGQQYLLRRGEYPDYQQWMGLSDSIRSCCLIPQTVSHRLRLYEREDHKGLMMELSEDCPSIQDRFHLSEIRSLHVLEGCWVLYELPNYRGRQYLLRPQEYRRCQDWGAMDAKAGSLRRVVDLY
partner: B1 partner
B3: Alpha-crystallin A chain (Homo sapiens), P02489 (parent)
chain: MDVTIQHPWFKRTLGPFYPSRLFDQFFGEGLFEYDLLPFLSSTISPYYRQSLFRTVLDSGISEVRSDRDKFVIFLDVKHFSPEDLTVKVQDDFVEIHGKHNERQDDHGYISREFHRRYRLPSNVDQSALSCSLSADGMLTFCGPKIQTGLDATHAERAIPVSREEKPTSAPSS
partner: B1 partner
B4: Gamma-crystallin C (Homo sapiens), P07315 (parent)
chain: B2 chain
partner: B1 chain
B5: Alpha-crystallin A chain (Homo sapiens), P02489 (parent)
chain: B3 chain
partner: B1 chain
B6: Alpha-crystallin A chain (Homo sapiens), P02489 (parent)
chain: B3 chain
B7: Alpha-crystallin B chain (Homo sapiens), P02511 (parent)
chain: B1 chain
partner: B3 chain

Variants of: B1
Conditions: with crbb2_human CRYBB2, P43320

Row | effect of a mutation on the interaction | Variant
1 | increasing interaction | MDIAIHHPWIRRPFFPFHSPSRLFDQFFGEHLLESDLFPTSTSLSPFYLRPPSFLRAPSWFDTGLSEMRLEKDRFSVNLDVKHFSPEELKVKVLGDVIEVHGKHEERQDEHGFISREFHGKYRIPADVDPLTITSSLSSDGVLTVNGPRKQVSGPERTIPITREEKPAVTAAPKK [R120G]

Variants of: B2
Conditions: with crbb2_human CRYBB2, P43320

Row | effect of a mutation on the interaction | Variant
2 | disrupting interaction | T5P

Variants of: B3
Conditions: with crbb2_human CRYBB2, P43320

Row | effect of a mutation on the interaction | Variant
3 | disrupting interaction | MDVTIQHPWFKRTLGPFYPSRLFDQFFGEGLFEYDLLPFLSSTISPYYRQSLFRTVLDSGISEVRSDRDKFVIFLDVKHFSPEDLTVKVQDDFVEIHGKHNERQDDHGYISREFHCRYRLPSNVDQSALSCSLSADGMLTFCGPKIQTGLDATHAERAIPVSREEKPTSAPSS [R116C]

Variants of: B4
Conditions: with cryab_human CRYAB

Row | effect of a mutation on the interaction | Variant
4 | disrupting interaction | T5P

Variants of: B5
Conditions: with cryab_human CRYAB

Row | effect of a mutation on the interaction | Variant
5 | increasing interaction | MDVTIQHPWFKRTLGPFYPSRLFDQFFGEGLFEYDLLPFLSSTISPYYRQSLFRTVLDSGISEVRSDRDKFVIFLDVKHFSPEDLTVKVQDDFVEIHGKHNERQDDHGYISREFHCRYRLPSNVDQSALSCSLSADGMLTFCGPKIQTGLDATHAERAIPVSREEKPTSAPSS [R116C]

Variants of: B6
Conditions: with crgc_human CRYGC

Row | effect of a mutation on the interaction | Variant
6 | disrupting interaction | MDVTIQHPWFKRTLGPFYPSRLFDQFFGEGLFEYDLLPFLSSTISPYYRQSLFRTVLDSGISEVRSDRDKFVIFLDVKHFSPEDLTVKVQDDFVEIHGKHNERQDDHGYISREFHCRYRLPSNVDQSALSCSLSADGMLTFCGPKIQTGLDATHAERAIPVSREEKPTSAPSS [R116C]

Variants of: B7
Conditions: with cryaa_human CRYAA

Row | effect of a mutation on the interaction | Variant
7 | decreasing interaction | MDIAIHHPWIRRPFFPFHSPSRLFDQFFGEHLLESDLFPTSTSLSPFYLRPPSFLRAPSWFDTGLSEMRLEKDRFSVNLDVKHFSPEELKVKVLGDVIEVHGKHEERQDEHGFISREFHGKYRIPADVDPLTITSSLSSDGVLTVNGPRKQVSGPERTIPITREEKPAVTAAPKK [R120G]
